# According to the DeepSol protein solubility set:
# Experiment: soluble on expression in E. coli; label from the status in PepcDB or PDB records
row,Sequence,soluble on expression in E. coli
1,HHMSAIKPDMKINLRMEGNVNGHHFVIDGDGTGKPFEGKQSMDLEVKEGGPLPFAFDILTTAFHYGNRVFAEYPDHIQDYFKQSFPKGYSWERSLTFEDGGICIARNDITMEGDTFYNKVRFHGVNFPANGPVMQKKTLKWEPSTEKMYVRDGVLTGDITMALLLEGNAHYRCDSRTTYKAKEKGVKLPGYHLVDHCIEILSHDKDYNKVKLYEHAVAHSGLPDNARR,soluble
2,HMAMASKEMFEDTVEERVINEEYKIWKKNTPFLYDLVMTHALQWPSLTVQWLPEVTKPEGKDYALHWLVLGTHTSDEQNHLVVARVHIPNDDAQFDASHCDSDKGEFGGFGSVTGKIECEIKINHEGEVNRARYMPQNPHIIATKTPSSDVLVFDYTKHPAKPDPSGECNPDLRLRGHQKEGYGLSWNSNLSGHLLSASDDHTVCLWDINAGPKEGKIVDAKAIFTGHSAVVEDVAWHLLHESLFGSVADDQKLMIWDTRSNTTSKPSHLVDAHTAEVNCLSFNPYSEFILATGSADKTVALWDLRNLKLKLHTFESHKDEIFQVHWSPHNETILASSGTDRRLNVWDLSKIGEEQSAEDAEDGPPELLFIHGGHTAKISDFSWNPNEPWVICSVSEDNIMQIWQMAENIYNDE,soluble
3,HMVHITLDPDTANPWLILSEDRRQVRLGDTQQSIPGNEERFDSYPMVLGAQHFHSGKHYWEVDVTGKEAWDLGVCRDSVRRKGHFLLSSKSGFWTIWLWNKQKYEAGTYPQTPLHLQVPPCQVGIFLDYEAGMVSFYNITDHGSLIYSFSECAFTGPLRPFFSPGFNDGGKNTAPLTLCPL,soluble
4,HQIGEDTYIVQGTMTLNDFNNYFDVELESDDVDTIAGYYLTGVGTIPTTEKLSYELVSQNKQFILTNDKVKNGRVTKVKVQITEVEIEEETE,not soluble
5,HSHDWLTYPAGIHAKTVTGKPLVVHVHATDFDRSRGNVNPQVFAIEKDGMNHADHIITVSNLTRRTVIEKYGQHPDKVTTVHNAVEPLPASILALPDKRGVKDKVITFLGRITMQKGPEYFVEAAAKVLERTSDVRFVMAGNGDMMDAMIRLAARHKIADRFHFTGFMKGEQVYEVFKASDVYVMPSVSEPFGISPLEAMQCGVPSIISKQSGCAEILDYAIKVDYWDIDAMADAMHALIAYPELHTFLRDEGLREVNNIKWETAGQKVRDIYNKVTGR,not soluble
6,HSIISETTNTNYRQEFVQLGTQMSGKLSFEEWKELYRRIVFWEIELEQADRQMGELLEMQKQEANRLFARFVTQNYREWIAKPDTRPTMSPDLFKQKVFPLLDNGEKVFFILIDNFRQDQWESVKSMLSEFYTFEEDMYLSILPTATQYARNAIFSGLMPLQIEKMFPDLWVDEESEEGKNLNEEPMIRTLIERYRKHYSFSYNKVYETKFGERLLGQIRSLSQNQLNVIVLNFVDMMSHARTDSKMIRELASNEAAYRSLTKSWFKHSTTYNLFRSIAEMGYKVVLTTDHGTIQVKNPVKVIGDRSTNTNLRYKIGKNLDYNPKEVFEIKDPASVGLPHNNLSDKFIFTKEDDFFAYPNNYNYYVQYYRNTFQHGGISLEEMLVPVITMQPK,soluble
7,HWVTPDGQPGPSGEGGFTAESGRYHLFVSLACPWAHRTLIFRHLKDLQAHIGITIVDPRMLEHGWAFSEISRDNPVQDIRYLHQLYTRAKPDYTGRVTVPVLWDKQRDTIVSNESADIIRMFNSAFDSLTGNDLDFYPEALRNEIGTINEVVYRDFNN,not soluble
8,IAAVGDGVCMLDRGFRIVYQNRAHERLLGEHGGERCSDAYGEDPDACRDCPMARAMDTGEVCTGSRRFISKGETRLLEITSSPVRNAAGEIVAGVEVVRDVT,not soluble
9,IALENTIEQRLAADVATLVSAARVEKGRLVMPEHLPVEEFNLPEAKVLGYIYDQNGDLLWRSTSAADESINYTPRYDGRGNEFHTTRDAKGEEFFVFDVEIDLLRGKQAAYSIVTMQSVSEFESLLKGFREQL,not soluble
10,IETNRRERRIKRNKYLLSLYNNTNIKTSNFIYPLFIHEEDVEKKHTQLEGIYTYNVDGIIKEIEECIKLNIHHFMFFPVIREENKTVYCEESYNENSYFCKTISRIKEKFSDDIIVYTDVALDPYNIYGHDGIYDDNKKEILNDITVHTLVKQSLCLAKSGADVVCPSDSMDKRIELIRKNLDFHNFRDILILSYTCKYSSSMYKPFRSILNSNILKNFVKNKQSYQHDFNSYMDLNNVDKHIIEGADIIMVKPSMFYLDIIHKIKNRIKDDVQIPIAVYNVSGEYMMIKNYVKYLNEDINYENEIITELFKSYLRAGANIIITYFAKQYGLYMKKLYDKNIIIDDNSNNNFNIELTL,soluble
11,IGDVNLTLRGNFTYSKSEILEYDEEYSNYPYKSQRGFRVDQTRGLIALGLFKDYDDIRNSPKQSWGDVMPGDIKYADVNGDGYVNDNDIVPIGATTRPNLVYGFGLSGQWKGIDINVLFQGSGKSTFCIDGPTVYPFENGDWGNILTDVVKSNRWILGENEDPNAKYPRLSYGGNSNNYRASTYWLRNGSYLRLKNLEIGYTIPKSLVNKMHLNNIRIYFMGTNLVTFSSFKLWDPELGSSNGQKYPLSKSYTLGLTINI,not soluble
12,IGQVNLSARGNFTFARNEIIEYDQVPQVYPWLEKRGTRLNSNKLYIAEGLYTYDDFIINGEGLNRTYELKPGVVSGLSSGVRPGDIKYKDLNGDGKIDSNDQKEDVGNPTVPEVVYGFGFNAEWKGFYAGIFFQGAGNTSTVLGTGADATFFPFQWGVEESAVRSVVADRWTEQNPSQNVMFPRMHSNNFQNNTVASTWWLRDASFLRLKNIELGYNFDKKLLKKLNIEALRFYVQGNNLCVWDHIKMWDPEQGNSNGGFPYPLNRTFTFGLDFTF,not soluble
13,IGQVNYNIGFNMADSRSFVDKYPNKSKSLSTYYKDQELGAIWGYVTHGIAKSQSEMDEWTKDNKPSWGSGWGEGDIMFEDLNGDKVINEGANTVDDPGDRKIIGNSTPRFRFGLDLGVEWKGIDFSMFWQGVAKRDLWLDGPMFWGISGGEWQSTGLKEHLDYYRPENTTSVFGPNTNAYFPKMYMSKDMNQKVQTRYLQNGAYARLKNIQLGYTFPTQIINKLHMQKLRVYVSAENVLTITSLPSGFDPETTYSNYSDGNSGKTYPLQTTISFGLNATF,not soluble
14,IGYWHYDADTDTATWSKGLFKILGLPPSNVALNYSSFLDLVHPNDKAGLKNVVEKALKEKEDYDYELRVRNGDNDYKWYRTIARANPHK,not soluble
15,IHTSPYSKDAPLVASLSVNQKITGRNSEKDVRHIEIDLGDSGLRYQPGDALGVWYQNDPALVKELVELLWLKGDEPVTVEGKTLPLNEALQWHFELTVNTANIVENYATLTRSETLLPLVGDKAKLQHYAATTPIVDMVRFSPAQLDAEALINLLRPLTPRLYSIASSQAEVENEVHVTVGVVRYDVEGRARAGGASSFLADRVEEEGEVRVFIEHNDNFRLPANPETPVIMIGPGTGIAPFRAFMQQRAADEAPGKNWLFFGNPHFTEDFLYQVEWQRYVKEGVLTRIDLAWSRDQKEKVYVQDKLREQGAELWRWINDGAHIYVCGDANRMAKDVEQALLEVIAEFGGMDTEAADEFLSELRVERRYQRDVY,soluble
16,IKEGQLAEKTIRANKNIENTYETEQRKKLAAEAVTPEYIYQEDTASVQHNRIDKLFKLIDSANEKVDKEYSNKQAKAKKEETIPAPTVEERVASLKSLFESLPQDEVTFYQSFPNVFYQTIFTLTSEQLDKVRSESLMLVDDAMQNHVRESDLDKIRQEANGKIQYLDITSTMQQVIRYIVNQGIVVNDIANEKRTEELRQKAMNAVQPAMIYQGEIIVREGTQIDAKAVEKLELLGMTSQNTS,not soluble
17,ILPQPDVRVNQVGYLPEGKKVATVVCNSTQPVKWQLKNAAGVVVLEGYTEPKGLDKDSQDYVHWLDFSDFATEGIGYYFELPTVNSPTNYSHPFDIRKDIYTQMKYDALAFFYHKRSGIPIEMPYAGGEQWTRPAGHIGIEPNKGDTNVPTWPQDDEYAGIPQKNYTKDVTGGWYDAGDHGKYVVNGGIAVWTLMNMYERAKIRGLDNWGPYRDGGMNIPEQNNGYPDILDEARWEIEFFKKMQVTEKEDPSIAGMVHHKIHDFRWTALGMLPHEDPQPRYLRPVSTAATLNFAATLAQSARLWKDYDPTFAADCLEKAEIAWQAALKHPDIYAEYTPGSGGPGGGPYNDDYVGDEFYWAACELYVTTGKDEYKNYLMNSPHYLEMPAKMGENGGANGEDNGLWGCFTWGTTQGLGTITLALVENGLPATDIQKARNNIAKAADRWLENIEEQGYRLPIKQAEDERGGYPWGSNSFILNQMIVMGYAYDFTGDSKYLDGMFDGISYLLGRNAMDQSYVTGYGERPLQNPHDRFWTPQTSKRFPAPPPGIISGGPNSRFEDPTINAAVKKDTPPQKCFIDHTDSWSTNEITVNWNAPFAWVTAYLDQYTD,soluble
18,INLSTLPEHLTYLVRSSRVLQELHESEAQNRALLNAIPDMMLHVCREGTILDFRAGNGCAYAAFGGNLRGRTIADLLPPGAAAQFMAQVGHALATGTMMVCEYELEGPGGLNTHEARIVANG,not soluble
19,INPAAHGAMDELLGELRLHTVCREARCPNITECFRERQATFLILGAECTRLCSFCNVTKGEPLPPDPDEPARVAQAVVRLSLAHVVITSPTRDDLPDGGAGHYVATVATIGRVAPATVVELLIPDFLGSRAALADVVAAAPRIIGHNVETVPRLYAIRAGADYGRSLAVLRTLRELAPGCATKSGLMLGLGETEEEVLAVMADLRRVDCTYLSLGQYLAPSRFHHPVREFVLPETFDRLKELAEKMGFRHVESGPY,not soluble
20,INYEKVGLKVGLEIHQQLNTKRKLFCHCPTILRDDEPDGEIVRVLRPSLSEMGEVDRAALIEARKGKKFIYQFYNDTTCLVELDEEPPHPPSEEALRIALEVALLMNMNVVDVAYTMRKIVIDGSNTSGFQRTIFLARDGYIETSEGKVGITSLCLEEDAARKIEDRGDAVVYNLDRLGIPLVEISTAPDIKTPKMAKEAARRIGEILRATGKVKRGLGTIRQDINISIKDGARIEVKGVQDLDLIEKVVENEVIRQLNLL,not soluble
21,IPVDLTWDLEAIFSTDEEWEKEFNEVKGLIPSLVQFKGKLSQSAEILYAALQQQDEITERLGRLYTYAHMRYDQDTTNSFYQGLNDRAQTLASQVGQAASFVVPELMSIEKEKIDTFLNEHEPLTLYRHMLDELNKQRPHVLSEAEESILAQASEVTSAPSNTFGMLNNADMTFPTIVNENGEEVEVTHGRYL,soluble
22,IRDFSYGVKFVLSDSQQKILKYPNEDYNIGTYYKGQKLNNIWGYKTIGIAQSQEEMDAHLAKVDQSALGSKWGAGDIMYADLDGDGKISTGSNKLGDTGDRVILGNSTPRFNYGLTIDASWKGIDFRAFFQGIGKRDYWLQGPYFWGSTGLGQWQAAGFKEHWDFWRPEGDPLGANTNAYYPRVARNGGKNTNVQSRYLQNAAYCRLKNIQIGYTLPKTWTEKAGMSSVRVYVSGDNLLTFSDITGIFDPEAIGSTYDANNGKLYPLQRVISVGLNVNF,not soluble
23,ITRDEVGELARVMNEMASQIERNLARISAEKNRLDTILRGMGEGLMVSDAGGTVTLVNPAFLELFGLTQSVEGRQIIEIARFPELHETFRAVVSSRSEHVEEMTLPLGDEKQVLTHWVPLMEE,not soluble
